Molecular target: HLA-A*0201 MART-1 peptide complex on peptide-loaded K562 cells (human)
Assay: cell-based or functional assay

CD25 Fold Change (TCR-transduced CD8+ Jurkat KO cells co-cultured with peptide-loaded K562 APCs): 235 fold | CD69 Fold Change (TCR-transduced CD8+ Jurkat KO cells co-cultured with peptide-loaded K562 APCs): 45 fold | IL2 Fold Change (TCR-transduced CD8+ Jurkat KO cells co-cultured with peptide-loaded K562 APCs): 33 fold
Substance: MART-1/Melan-A specific TCR DMF5

From patent US20230041030A1
